# Several values for one entry are separate records, joined by “and”; a condition that tells them apart may be missing. Equal entries are not always repeated.
# B1: PRSIM_75: scFv PRSIM binding molecule, SEQ ID NO: 15 (protein)
# scFv: EVQLVQSGAEVKKPGSSVKVSCKASGGSFNSYTLDWVRQAPGQGLEWMGGIIPVFGSPNYGQKFQGRVTITADESTSTAYMELSSLKSDDTAVYYCARGLVYQPLDSWGRGTLVTVSSGGGGSGGGGSGGGGSAQAVLTQPSSASGTPGQRVTISCSGSSSNIGSYTVNWYQQFPGTAPKLLIYSNTQRPSGVPDRFSGSKSGTSASLAISGLQSEDEADYYCAAWDDSLNGWVFGGGTKVTVL
# modifications: PRSIM_75
# B2: PRSIM_67: scFv PRSIM binding molecule, SEQ ID NO: 13 (protein)
# scFv: EVQLVQSGAEVKKPGAAVRISCKTSGYVFTSYYVHWVRQAPGQGLEWMGVINPSGGNTNYAQKFQDRVTMTRDTSTTTVYMELSSLMFDDTAVYYCAKRDYGGPLANWGRGTLVTVSSGGGGSGGGGSGGGGSALSYELTQPPSVSEAPRQRVTISCSGSSSNIGNNAVNWYQQLPGKAPKLLIFYDDLLPSGVSDRFSGSKSGTSASLAISGLQSEDEADYYCAAWDDSLNGLVFGTGTKLTVL
# modifications: PRSIM_67
# B3: PRSIM_23: Tn3 protein specific for HCV NS3/4A PR (S139A):simeprevir complex, SEQ ID NO: 5 (protein)
# chain: RLDAPSQIEVKDVTDTTALITWVDPRYDDIWWFELTYGIKDVPGDRTTIKLYLNDPYYSIGNLKPDTEYEVSLISYTGDSYSRSGSNPAKITFKTGL
# modifications: PRSIM_23
# B4: PRSIM_33: Tn3 PRSIM binding molecule, SEQ ID NO: 7 (protein)
# chain: RLDAPSQIEVKDVTDTTALITWYPPGRWYDDIWYFELTYGIKDVPGDRTTIKLARGDDVYSIGNLKPDTEYEVSLISWGPDRGDRAGSNPAKITFKTGL
# modifications: PRSIM_33
# B5: PRSIM_04: scFv PRSIM binding molecule, SEQ ID NO: 11 (protein)
# scFv: QVQLVQSGAEVKKPGSSVKVSCKASGGTFSSYAISWVRQAPGQGLEWMGGIIPIFGTANYAQKFQGRVTITADESTSTAYMELSSLRSEDTAVYYCARGMAHFYQFDLWGQGTLVTVSSGGGGSGGGGSGGGGSAQSVLTQPPSASGTPGQRVTISCSGSSSNIGSNTVNWYQQLPGTAPKLLIYSNNQRPSGVPDRFSGSKSGTSASLAISGLQSEDEADYYCAAGDHDHEHVVFGGGTKLTVL
# modifications: PRSIM_04
# B6: PRSIM_72: scFv PRSIM binding molecule, SEQ ID NO: 14 (protein)
# scFv: B5 scFv
# modifications: PRSIM_72
# B7: PRSIM_57: scFv specific for HCV NS3/4A PR (S139A):simeprevir complex, SEQ ID NO: 12 (protein)
# scFv: QVQLVQSGAEVKKPGSSVKVSCKASGGTFSSYAISWVRQAPGQGLEWMGGIIPIFGTANYAQKFQGRVTITADESTSTAYMELSSLRSEDTAVYYCARHTNYITVFDYWGQGTLVTVSSGGGGSGGGGSGGGGSAQSVLTQPPSASGTPGQRVTISCSGSSSNIGSNTVNWYQQLPGTAPKLLIYSNNQRPSGVPDRFSGSKSGTSASLAISGLQSEDEADYYCAAWDHHWEQVVFGGGTKLTVL
# modifications: PRSIM_57
# Test system: luciferase reporter gene in HEK293 cells
# Assay: Transcriptional regulation assay (split transcription factor), luciferase reporter
# Format: cell-based, human
# Conditions: PRSIM fused to AD; one copy
# Excerpt: The iDimerize regulated transcription system (Takara) was used to test the ability of PRSIM-based CIDs to regulate gene expression. […] The DBD and AD are separately fused to the two protein components of a CID such that, only in the presence of the small molecule inducer, the AD is brought into close proximity to the DBD, recruiting the transcription machinery to a promoter harbouring the DBD recognition sites. The iDimerize regulated transcription system (Takara) provides two vectors, pHet-Act1-2 and pZFHD1-Luciferase. The pHet-Act1-2 vector encodes two fusion proteins that represent a positive control: one is a fusion between FRB (T82L mutant; DmrC) and an activation domain (AD) from human p65 (SEQ ID NO: 42); the other is a fusion protein comprised of a DNA binding domain (ZFHD1) (SEQ ID NO: 43) fused to three tandem copies of FKBP12 (DmrA). These sequences are preceded by a CMV promoter and separated by an internal ribosome entry site (IRES). The ZFHD1 vector encodes luciferase preceded by an inducible promoter consisting of 12 copies of the recognition sequence of the ZFHD1 DBD upstream of a minimal IL-2 promoter. Binding of the DBD to its recognition sequence and recruitment of the transcriptional machinery by the AD initiates transcription of the luciferase reporter gene. The DNA sequence encoding HCV NS3/4A PR (S139A) was purchased as a DNA string from GeneArt and cloned into the pHet-Act1-2 vector as either an N-terminal fusion partner to the activation domain (SEQ ID NO: 44) (replacing FRB) or as a C-terminal fusion partner to the DNA binding domain (SEQ ID NO: 45) (replacing FKBP12) with flexible linkers (TGGGGSGGGGS (SEQ ID NO: 185) and SA, respectively) between the fusion partners. Subsequently, sequences encoding one copy of a panel of 12 PRSIM molecules (Table 2) were purchased as DNA strings from GeneArt and were cloned using Gibson assembly into the HCV NS3/4A PR (S139A)-containing pHetAct1-2 constructs described above, as a fusion partner to either the DBD (SEQ ID NOS: 46-56) or AD (SEQ ID NOS: 57-67), respectively. An equivalent construct was generated to replace the three copies of FKBP12 in pHet-Act1-2 with a single copy of FKBP12. The sequence of the constructs encoding both activation domain and DNA-binding domain fusion proteins was confirmed by Sanger sequencing of the entire coding region.
# Sequences encoding the three HCV NS3/4A PR (S139A) mutants (Table 6) were purchased as DNA strings from GeneArt and were cloned using Gibson assembly into the pHetAct1-2 HCV NS3/4A PR (S139A)-PRSIM_23 (3 tandem copy) construct described above as a fusion partner to the AD (SEQ ID NOs: 211-216).
# All transcriptional regulation assays were performed in adherent HEK293 cells cultured in 384-well plates. Cells enzymatically dissociated from a tissue culture flask were counted and plated at 7.5×10^3 cells/well in a 384-well plate. The plates were incubated overnight at 37° C. with 5% CO2 to allow the cells to adhere. On day 2, the cells were co-transfected with a pHet-Act1-2 plasmid (containing the FRB:FKBP12 control fusion proteins (Clontech) or the HCV NS3/4A PR (S139A):PRSIM fusion proteins) and a pZFHD1 plasmid (encoding either luciferase (Clontech) or NanoLuc-PEST (as described above)) using Lipofectamine LTX (ThermoFisher). On day 3, wells were treated with different concentrations of either A/C heterodimeriser (for the FRB:FKBP12 control), simeprevir or with vehicle control, and 24 hours later luminescence was quantified with an Envision plate reader immediately following addition of SteadyGlo luciferase substrate (Promega) or Nano-Glo Vivazine luciferase substrate (Promega). Alternatively, reverse transfections were carried out on Day 1, addition of dimeriser on Day 2 and luminescence quantified 24 hours later on Day 3.
# Luminescence readings were converted into fold-change by dividing the signal in the presence of simeprevir by that in the absence of simeprevir.
row,Molecule,Max fold change
1,B1,40.67
2,B2,87.1
3,B3,106 and 106.67
4,B4,2.9
5,B5,6.9
6,B6,2.2
7,B7,10.73

# Same assay, conditions: PRSIM fused to AD; one copy; simeprevir dose-response; read-out: EC50
row,Molecule,EC50
1,B1,2.17 nM
2,B2,4.97 nM
3,B3,2.82 nM
4,B4,82.4 nM
5,B5,159000 nM
6,B6,4.84 nM
7,B7,3.21 nM

# Same assay, conditions: PRSIM fused to DBD; one copy
row,Molecule,Max fold change
1,B1,9.4
2,B2,1
3,B3,88 and 88.8
4,B4,33.14
5,B5,1.364
6,B6,1.4
7,B7,146 and 146.6

# Same assay, conditions: PRSIM fused to DBD; one copy; simeprevir dose-response; read-out: EC50
row,Molecule,EC50
1,B1,2.67 nM
2,B2,2.05 nM
3,B3,2.47 nM
4,B4,12.8 nM
5,B5,6.55 nM
6,B6,33 nM
7,B7,3.54 nM

# Same assay, conditions: direct comparison of DBD-PRSIM constructs with FRB:FKBP12:rapalog positive control
row,Molecule,fold increase in luciferase expression
1,B3,100 fold
2,B7,100 fold

# Same assay, conditions: firefly luciferase; one copy of PRSIM_23 fused to DBD
row,Molecule,max fold change
1,B3,364.5

# Same assay, conditions: firefly luciferase; three tandem PRSIM_23 fused to DBD
row,Molecule,max fold change
1,B3,4862 fold

# Same assay, conditions: firefly luciferase; two tandem PRSIM_23 fused to DBD
row,Molecule,max fold change
1,B3,2436

# Same assay, conditions: fusion orientation not stated; read-out: EC50
row,Molecule,EC50
1,B3,2 nM

# Test system: split Nanoluciferase (LgBiT/SmBiT) reconstitution in HEK293 cells
# Assay: Split NanoLuc reconstitution assay (NanoBiT)
# Format: cell-based, human
# Conditions: 100 nM simeprevir over no simeprevir; LgBiT fused to the C-terminus of the PRSIM binding module
# Method: The ability of the PRSIM binding molecules to promote dimerization of two proteins to which they are fused was assessed with the NanoBiT system (Promega) that measures the reconstitution of a split Nanoluciferase (NanoLuc) and the resultant luminescence upon supply of a live cell imaging Nano-Glo NanoLuc substrate (FIG. 8). In the NanoBiT system, one interaction partner is fused via a flexible linker to an 18 kDa fragment of NanoLuc termed LgBiT (for “large bit”) (SEQ ID NO: 16) and the other is fused via an equivalent linker to a 1.3 kDa peptide SmBiT (“small bit”) (SEQ ID NO: 17). LgBit and SmBiT have a low affinity (190 μM) for each other in the absence of interacting partners and will not reconstitute to form an active luciferase enzyme. Once fused to the interacting proteins of a CID and supplied with inducer, they will reconstitute, and luminescence can be measured. The NanoBiT system supplies two sets of control proteins fused to LgBiT and SmBiT: a set of constitutively interacting proteins PRKAR2A:PRKACA; and the FRB:FKBP12 pair whose dimerization can be induced with rapamycin.
# To establish the optimal orientation of the HCV NS3/4A PR (S139A) and PRSIM components, constructs whereby HCV NS3/4A PR (S139A) was fused at either the N- or C-terminus to SmBiT (SEQ ID NOs: 18 and 19, respectively) and a parallel set of constructs for each PRSIM binding module fused to either the N- or C-terminus of LgBiT (SEQ ID NOS: 20-30 and 31-41, respectively). The NanoBiT kit (Promega) supplies a set of vectors enabling these constructs to be generated. DNA strings encoding HCV NS3/4A PR (S139A) and the PRSIM molecules were purchased from GeneArt and amplified via PCR with primers with extensions containing restriction sites compatible with the NanoBiT vectors and were cloned via Gibson assembly. All constructs were verified via Sanger sequencing of the entire coding sequence.
# All NanoBiT screens were performed in adherent HEK293 cells cultured in 96-well plates. Cells enzymatically dissociated from a tissue culture flask were counted and plated at 2×10^4 cells/well in a white, opaque-bottomed 96-well plate (Costar 3917). The plates were incubated overnight at 37° C. with 5% CO2 to allow the cells to adhere. On day 2, plasmids were co-transfected with Lipofectamine LTX (ThermoFisher) at a final concentration of 100 ng/well (50 ng/plasmid, one encoding a SmBiT fusion, the other a LgBiT fusion). On day 3, wells were treated with 100 nM of the appropriate small molecule inducer (rapamycin (FRB:FKBP12) or simeprevir (HCV NS3/4A PR:PRSIM)) or vehicle control, and luminescence was quantified with an Envision plate reader immediately following addition of Nano-Glo Live Cell Substrate (Promega).
row,Molecule,fold-change in luminescence
1,B3,31 fold
2,B4,9 fold
3,B7,14 fold

# — patent US20220380801A1, “TRIPARTITE SYSTEMS FOR PROTEIN DIMERIZATION AND METHODS OF USE” (priority 2019, published 2022)
